Source: the Immune Epitope Database (IEDB)

What was measured:
HLA-A*02:16 [1] = experiment: IEDB peptide-MHC binding, purified MHC/direct/fluorescence; filed as Kd, often an IC50 or EC50 that approximates it; ≥ and ≤ were set here for values at or beyond the usual limits of such assays; conditions: source organism: Listeria monocytogenes serotype 4b str. H7858
HLA-A*69:01 = experiment: as above
HLA-A*02:01 [2] = experiment: as above
HLA-A*02:50 = experiment: IEDB peptide-MHC binding, purified MHC/competitive/fluorescence; filed as Kd, often an IC50 or EC50 that approximates it; ≥ and ≤ were set here for values at or beyond the usual limits of such assays
HLA-B*18:01 [3] = experiment: as above; conditions: source organism: Corynebacterium glutamicum ATCC 13032
HLA-A*02:03 = experiment: as above; conditions: source organism: Corynebacterium glutamicum ATCC 13032
HLA-B*15:01 = experiment: as above; conditions: source organism: Corynebacterium glutamicum ATCC 13032
HLA-A*02:19 = experiment: as above; conditions: source organism: Corynebacterium glutamicum ATCC 13032
HLA-B*40:01 = experiment: as above
HLA-A*11:01 = experiment: as above
HLA-A*02:16 [4] = experiment: as above; conditions: source organism: Corynebacterium glutamicum ATCC 13032
HLA-B*46:01 [5] = experiment: as above; conditions: source organism: Corynebacterium glutamicum ATCC 13032
HLA-A*26:01 [6] = experiment: as above; conditions: source organism: Corynebacterium glutamicum ATCC 13032
HLA-B*07:02 = experiment: as above
HLA-B*58:01 = experiment: as above
HLA-A*03:01 [7] = experiment: as above; conditions: source organism: Corynebacterium glutamicum ATCC 13032
HLA-A*31:01 = experiment: as above; conditions: source organism: Corynebacterium glutamicum ATCC 13032
HLA-A*24:02 = experiment: as above; conditions: source organism: Corynebacterium glutamicum ATCC 13032
HLA-A*02:12 = experiment: as above; conditions: source organism: Corynebacterium glutamicum ATCC 13032
HLA-B*27:05 = experiment: as above
HLA-B*35:01 = experiment: as above; conditions: source organism: Corynebacterium glutamicum ATCC 13032
HLA-A*01:01 = experiment: as above
HLA-A*02:01 [8] = experiment: as above; conditions: source organism: Corynebacterium glutamicum ATCC 13032
HLA-A*02:06 [9] = experiment: as above; conditions: source organism: Corynebacterium glutamicum ATCC 13032
HLA-A*02:11 [10] = experiment: as above; conditions: source organism: Corynebacterium glutamicum ATCC 13032
HLA-A*30:01 = experiment: as above
HLA-A*24:03 = experiment: IEDB peptide-MHC binding, purified MHC/direct/fluorescence; filed as Kd, often an IC50 or EC50 that approximates it; ≥ and ≤ were set here for values at or beyond the usual limits of such assays; conditions: source organism: Yersinia pestis CA88-4125
HLA-B*18:01 [11] = experiment: as above; conditions: source organism: Yersinia pestis CA88-4125
HLA-B*51:01 = experiment: as above; conditions: source organism: Yersinia pestis CA88-4125
HLA-B*27:03 = experiment: as above; conditions: source organism: Yersinia pestis CA88-4125
HLA-B*57:01 = experiment: as above; conditions: source organism: Yersinia pestis CA88-4125
HLA-B*46:01 [12] = experiment: as above; conditions: source organism: Yersinia pestis CA88-4125
HLA-B*39:01 = experiment: as above; conditions: source organism: Yersinia pestis CA88-4125
HLA-A*26:01 [13] = experiment: as above; conditions: source organism: Yersinia pestis CA88-4125
HLA-A*03:01 [14] = experiment: as above; conditions: source organism: Yersinia pestis CA88-4125
HLA-A*02:06 [15] = experiment: as above; conditions: source organism: Yersinia pestis CA88-4125
HLA-A*29:02 = experiment: as above; conditions: source organism: Yersinia pestis CA88-4125
HLA-A*02:11 [16] = experiment: as above; conditions: source organism: Yersinia pestis CA88-4125
HLA-B*53:01 = experiment: IEDB peptide-MHC binding, purified MHC/competitive/fluorescence; filed as Kd, often an IC50 or EC50 that approximates it; ≥ and ≤ were set here for values at or beyond the usual limits of such assays; conditions: source organism: Yersinia pestis CO92
HLA-A*66:01 = experiment: as above; conditions: source organism: Yersinia pestis CO92
HLA-A*23:01 = experiment: as above; conditions: source organism: Yersinia pestis CO92
HLA-B*44:02 = experiment: as above; conditions: source organism: Yersinia pestis CO92
HLA-B*08:01 = experiment: as above; conditions: source organism: Yersinia pestis CO92
HLA-A*30:02 = experiment: as above; conditions: source organism: Yersinia pestis CO92
HLA-B*14:02 = experiment: as above; conditions: source organism: Yersinia pestis CO92
[17] = source organism: Listeria monocytogenes
[18] = source organism: Corynebacterium glutamicum ATCC 13032
[19] = source organism: Yersinia pestis CA88-4125
[20] = source organism: Yersinia pestis CO92

In the case of ALVSEVTEV, the Kd (HLA-A*02:16 [1]) is reported as 0.002 µM, the Kd (HLA-A*69:01; [17]) is reported as 1.92 µM and the Kd (HLA-A*02:01 [2]; [17]) is reported as 0.0797 µM. For the same sequence, the Kd (HLA-A*02:50; source organism: Listeria monocytogenes EGD-e) was ≤ 0.0001 µM.

With HLPELIWRS the Kd (HLA-B*18:01 [3]) was ≥ 20 µM, the Kd (HLA-A*02:03) was 0.95 µM and the Kd (HLA-B*15:01) was ≥ 20 µM. For the same sequence, the Kd (HLA-A*02:19) was ≥ 20 µM, the Kd (HLA-B*40:01; [18]) was ≥ 20 µM and the Kd (HLA-A*11:01; [18]) was ≥ 20 µM. The Kd (HLA-A*02:16 [4]) was 0.097 µM, the Kd (HLA-B*46:01 [5]) was ≥ 20 µM and the Kd (HLA-A*26:01 [6]) was ≥ 20 µM. The Kd (HLA-B*07:02; [18]) was ≥ 20 µM, the Kd (HLA-B*58:01; [18]) was ≥ 20 µM and the Kd (HLA-A*03:01 [7]) was ≥ 20 µM. The Kd (HLA-A*31:01) was ≥ 20 µM, the Kd (HLA-A*24:02) was ≥ 20 µM and the Kd (HLA-A*02:12) was 0.8 µM. The Kd (HLA-B*27:05; [18]) was ≥ 20 µM, the Kd (HLA-B*35:01) was ≥ 20 µM and the Kd (HLA-A*01:01; [18]) was ≥ 20 µM. The Kd (HLA-A*02:01 [8]) was 0.976 µM, the Kd (HLA-A*02:06 [9]) was 0.0022 µM and the Kd (HLA-A*02:11 [10]) was 0.0267 µM. The Kd (HLA-A*30:01; [18]) was ≥ 20 µM and the Kd (HLA-A*02:50; [18]) was 0.0136 µM.

For QQRPDLILV, the Kd (HLA-A*24:03) was ≥ 20 µM, the Kd (HLA-B*18:01 [11]) was ≥ 20 µM and the Kd (HLA-B*51:01) was ≥ 20 µM. The Kd (HLA-B*27:03) was ≥ 20 µM, the Kd (HLA-B*57:01) was ≥ 20 µM and the Kd (HLA-B*46:01 [12]) was ≥ 20 µM. For the same sequence, the Kd (HLA-B*39:01) was ≥ 20 µM, the Kd (HLA-A*26:01 [13]) was ≥ 20 µM and the Kd (HLA-A*03:01 [14]) was ≥ 20 µM. The Kd (HLA-A*69:01; [19]) was ≥ 20 µM, the Kd (HLA-A*02:01 [2]; [19]) was 3.43 µM and the Kd (HLA-A*02:06 [15]) was 0.17 µM. The Kd (HLA-A*29:02) was 0.089 µM, the Kd (HLA-A*02:11 [16]) was ≥ 20 µM and the Kd (HLA-B*53:01) was ≥ 5 µM. For the same sequence, the Kd (HLA-A*66:01) was ≥ 5 µM, the Kd (HLA-B*40:01; [20]) was ≥ 5 µM and the Kd (HLA-A*11:01; [20]) was ≥ 5 µM. For the same sequence, the Kd (HLA-B*07:02; [20]) was ≥ 5 µM, the Kd (HLA-A*23:01) was ≥ 5 µM and the Kd (HLA-B*44:02) was ≥ 5 µM. For the same sequence, the Kd (HLA-B*58:01; [20]) was ≥ 5 µM, the Kd (HLA-B*08:01) was ≥ 5 µM and the Kd (HLA-B*27:05; [20]) was ≥ 5 µM. The Kd (HLA-A*01:01; [20]) was ≥ 5 µM, the Kd (HLA-A*30:02) was ≥ 20 µM and the Kd (HLA-B*14:02) was ≥ 5 µM. For the same sequence, the Kd (HLA-A*30:01; [20]) was ≥ 5 µM.
